Consider three molecules from publication PMC4608735, “Inhibition of BACE1 Activity by a DNA Aptamer in an Alzheimer’s Disease Cell Model”.

Data set [1] has as its target β-site APP-cleaving enzyme 1 (BACE1) (UniProt P56817).
Data set [2] has as its target BACE1 extracellular domain (human, UniProt P56817 46-457). The data set can be described thus: indirect ELISA (plate-coated BACE1); ELISA: BACE1 coated in 1x PBS, 5% BSA block, PBST (0.01% Tween 20, pH 7.4) wash, aptamer 60 min at 37 C; SELEX binding buffer: 1x PBS, 5 mM MgCl2, 0.45% glucose, tRNA, salmon sperm DNA, BSA; FRET: kit Fluorescent Assay Buffer, 37 C, 4 h. The following applies: protein: commercial; predicted stem-loop.

In general, Kd refers to a measure of binding affinity in units of concentration.

Sequence of BACE1 extracellular domain (P56817 46-457): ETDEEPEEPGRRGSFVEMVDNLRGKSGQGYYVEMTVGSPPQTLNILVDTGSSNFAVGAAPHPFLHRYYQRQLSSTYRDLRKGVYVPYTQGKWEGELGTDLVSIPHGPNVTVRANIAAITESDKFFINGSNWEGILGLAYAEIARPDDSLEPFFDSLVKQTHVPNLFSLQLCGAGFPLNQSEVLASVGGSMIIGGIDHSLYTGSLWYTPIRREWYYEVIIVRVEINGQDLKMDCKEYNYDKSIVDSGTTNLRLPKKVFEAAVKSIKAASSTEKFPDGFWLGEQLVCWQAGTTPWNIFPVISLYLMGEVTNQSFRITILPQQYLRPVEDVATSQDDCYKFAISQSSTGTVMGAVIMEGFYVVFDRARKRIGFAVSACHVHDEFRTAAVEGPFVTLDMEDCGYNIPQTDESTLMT
Sequence of β-site APP-cleaving enzyme 1 (BACE1) (P56817 46-501): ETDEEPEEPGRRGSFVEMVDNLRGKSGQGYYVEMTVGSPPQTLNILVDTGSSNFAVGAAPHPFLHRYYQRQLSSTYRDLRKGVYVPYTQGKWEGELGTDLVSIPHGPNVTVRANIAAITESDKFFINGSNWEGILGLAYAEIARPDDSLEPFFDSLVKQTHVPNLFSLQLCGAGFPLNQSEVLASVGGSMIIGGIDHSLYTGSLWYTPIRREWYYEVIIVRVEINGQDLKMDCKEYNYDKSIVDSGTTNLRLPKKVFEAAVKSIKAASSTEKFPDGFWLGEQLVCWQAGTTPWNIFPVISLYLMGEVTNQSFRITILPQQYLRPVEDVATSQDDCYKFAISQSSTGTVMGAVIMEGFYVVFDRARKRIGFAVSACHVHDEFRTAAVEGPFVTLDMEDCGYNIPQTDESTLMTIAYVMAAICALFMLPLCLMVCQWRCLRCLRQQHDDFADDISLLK

“[Asn670, Sta671, Val672]-Amyloid β/A4 Precursor Protein 770 Fragment 662–675 (from UniProt P05067 662-675) (peptide)” returned an IC50 of inhibition of BACE1 activity (cleavage of a fluorescent substrate, FRET assay of the BACE1 Activity Detection Kit, 4 h, 37°C) in data set [1] of 242 nM.

B1: A4 (ssDNA)
DNA: GCAATGGTACGGTACTTCCTGTGTTATTGTTATGTTTTTTCAGTGTAGTCAAAAGTGCACGCTACTTTGCTAA
Regarding B1, the equilibrium dissociation constant (Kd) in data set [2] was 15.3 ± 2.03 nM.

B2: A1 (ssDNA)
DNA: GCAATGGTACGGTACTTCCGTCATCAGCTTGTGATGTGGATGCGAACTGCAAAAGTGCACGCTACTTTGCTAA
Take B2: the Kd in data set [2] is 68.6 ± 8.12 nM.
